Results published in PMC7192608.

Key:
Assay in all cases: EMSA
Rap1-DBD = target: T1, Rap1-DBD (Saccharomyces cerevisiae, UniProt P11938 360-598)
T1 sequence: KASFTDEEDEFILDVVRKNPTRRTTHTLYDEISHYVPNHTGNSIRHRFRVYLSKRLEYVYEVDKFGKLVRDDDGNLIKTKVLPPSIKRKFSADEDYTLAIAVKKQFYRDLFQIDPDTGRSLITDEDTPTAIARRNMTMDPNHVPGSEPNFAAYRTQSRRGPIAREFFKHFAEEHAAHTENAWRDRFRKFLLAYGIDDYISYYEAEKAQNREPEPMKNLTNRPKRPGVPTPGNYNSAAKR

Rap1 BRCT domain = target: T2, Rap1 BRCT domain (Saccharomyces cerevisiae, UniProt P11938 1-358)
T2 sequence: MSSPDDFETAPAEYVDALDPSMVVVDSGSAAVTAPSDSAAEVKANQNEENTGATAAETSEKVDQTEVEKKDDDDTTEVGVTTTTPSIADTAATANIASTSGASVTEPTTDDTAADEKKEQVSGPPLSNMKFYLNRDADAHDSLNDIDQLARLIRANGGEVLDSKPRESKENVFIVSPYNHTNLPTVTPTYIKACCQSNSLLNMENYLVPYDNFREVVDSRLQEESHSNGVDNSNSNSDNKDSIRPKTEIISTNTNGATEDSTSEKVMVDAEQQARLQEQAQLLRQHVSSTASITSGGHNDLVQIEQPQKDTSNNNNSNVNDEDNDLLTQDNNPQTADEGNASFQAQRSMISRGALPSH

[1] = target: T3, Rap1 RCT (C-terminal domain) (Saccharomyces cerevisiae, UniProt P11938 600-827)
T3 sequence: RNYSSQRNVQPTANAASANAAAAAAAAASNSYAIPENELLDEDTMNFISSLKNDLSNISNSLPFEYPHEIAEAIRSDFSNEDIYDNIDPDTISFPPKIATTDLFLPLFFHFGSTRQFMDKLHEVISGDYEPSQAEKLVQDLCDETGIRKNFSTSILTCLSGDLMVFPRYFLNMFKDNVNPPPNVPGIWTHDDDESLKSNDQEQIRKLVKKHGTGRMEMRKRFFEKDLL

TGGGTGTGTGGGTGTGTGGGTGTGTGGG (structured_DNA) [4-G3 no tail] showed a Kd (Rap1-DBD) of 22 nM.

For AATTCTGGGTGTGTGGGTGTGTGGGTGTGTGGGTGTGG (structured_DNA) [4-G3], the binding result (Rap1 BRCT domain) was “no binding”, the binding result [1] was “no binding” and the Kd (Rap1-DBD) was 28 nM.

In the case of TTGGGTGGGTGGGTGGGTT (structured_DNA) [T-loops], the Kd (Rap1-DBD) is reported as 45 nM.
